The text below walks through data of patent US20180079819A1 (IMMUNOGEN, published 2018).

“And” between values parts separate entries of the source, which are not always exact repeats. Identical values can stand only once. Some results are limits rather than exact numbers.

Test [1] addresses T1, human CD123 (IL-3Rα, interleukin-3 receptor alpha chain) (human, UniProt P26951 19-378).
T1 construct: CD123 on human cell lines (TF-1, HNT-34, MOLM-13 and other AML, B-ALL, CML and NHL lines) or on 300-19 cells stably expressing human CD123; also called CD123 antigen; human CD123 antigen
Briefly: flow cytometry on HNT-34 cells; EC50 of the binding curve taken as apparent Kd. On the technique in general: Flow cytometry measures light scatter and fluorescence of single cells or particles in a stream.

For test [2], the target named is T1, human CD123 (IL-3Rα, interleukin-3 …). Briefly: cell-based or functional assay.
For test [3] the target is unchanged. Description: flow cytometry on HNT-34 cells; apparent Kd.
The target is the same in test [4]. Briefly: flow cytometry on TF-1 cells; EC50 of the binding curve taken as apparent Kd.
Test [5] shares this target. Description: flow cytometry on HNT-34 cells, PE-conjugated goat anti-human secondary.
Test [6] has the same target. Briefly: flow cytometry on HNT-34 cells, apparent Kd against that of 7G3.
The target in test [7] is T2, IL3Rα (101-306) chimeric receptor protein: GMRα residues 1-114 fused to IL3Rα residues 101-306, His-tagged (human, UniProt P15509 23-114).
T2 construct: range 1-114; also called CRM domain of IL3Rα construct
T2 sequence: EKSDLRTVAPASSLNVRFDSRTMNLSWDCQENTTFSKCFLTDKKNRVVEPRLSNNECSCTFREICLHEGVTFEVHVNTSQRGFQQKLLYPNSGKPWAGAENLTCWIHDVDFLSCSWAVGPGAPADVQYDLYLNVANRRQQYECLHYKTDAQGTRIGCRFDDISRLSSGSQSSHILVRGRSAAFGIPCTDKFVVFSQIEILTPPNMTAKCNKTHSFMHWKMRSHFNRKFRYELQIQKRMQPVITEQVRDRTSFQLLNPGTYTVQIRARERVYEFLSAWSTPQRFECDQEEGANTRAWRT
Briefly: ELISA on plate-coated His-tagged protein, A450. As to the method: (§1) The chimeric and humanized anti-IL3Rα antibodies were tested in enzyme-linked immunosorbent assay (ELISA) format for binding to the IL-3Rαproteins described above. Briefly, each His-tagged IL-3Rαprotein purified by Ni Sepharose excel chromatography was diluted to 1 ng/mL in 50 mM sodium bicarbonate buffer pH 9.6, and 100 μL was added to each well. After a 16 hr incubation at 4° C., the plates were washed with Tris-buffered saline with 0.1% Tween-20 (TBST), then blocked with 200 μL blocking buffer (TBS with 1% BSA). Next, 100 μL of primary antibody, serially diluted in blocking buffer, was added in duplicate to the ELISA wells and incubated at room temperature for 1 hr. The plates were then washed 3 times with TBST before adding 100 μL of anti-human IgG (H+L)-HRP (Jackson ImmunoResearch) to each well. Once again the plates were incubated for 1 hr at room temperature followed by three washes with TBST. Finally, 100 μL of TMB one component HRP microwell substrate (Surmodics) was added to each well and incubated for 5 min. The reaction was stopped by adding 100 μL stopping solution (Surmodics) and absorbances were read at 450 nm.
(§2) Binding of the CD123 antibodies to the chimeric IL-3Rαproteins was evaluated in comparison to the wild type IL-3Rα.
On the technique in general: ELISA stands for enzyme-linked immunosorbent assay.

The target of test [8] is T3, extracellular domain of CD123/IL-3Rα (residues 1-306), histidine tagged (human, UniProt P26951 19-306).
T3 construct: Expressed in HEK 293T cells, purified on Ni Sepharose, coated on ELISA plates; also called wild type IL-3Rα; wild-type IL-3Rα construct
T3 sequence: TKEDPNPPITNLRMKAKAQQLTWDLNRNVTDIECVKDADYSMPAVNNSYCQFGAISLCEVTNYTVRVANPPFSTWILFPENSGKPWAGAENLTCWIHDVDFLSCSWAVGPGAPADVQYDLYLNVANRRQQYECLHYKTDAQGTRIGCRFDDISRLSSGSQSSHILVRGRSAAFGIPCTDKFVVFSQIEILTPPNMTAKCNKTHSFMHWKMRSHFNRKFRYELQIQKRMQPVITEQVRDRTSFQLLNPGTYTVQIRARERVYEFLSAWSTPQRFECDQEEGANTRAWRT
Description: ELISA on plate-coated His-tagged protein, A450. As to the method:
as §1, §2

For test [9], the target named is T1, human CD123 (IL-3Rα, interleukin-3 …). Description: flow cytometry on HNT-34 cells, against muCD123-3 of Example 5.
The target is the same in test [10]. Description: flow cytometry on MOLM-13 cells; apparent Kd; MOLM-13 cells.
Test [11] shares this target. Description: flow cytometry on HNT-34 cells, against muCD123-6 of Example 5.
Test [12] shares this target. Briefly: flow cytometry on HNT-34 cells, against muCD123-14 of Example 5.
Test [13] concerns the target T4, IL3Rα (1-100) chimeric receptor protein: IL3Rα residues 1-100 fused to GMRα residues 115-325, His-tagged (human, UniProt P15509 115-325).
T4 construct: range 115-325; also called IL-3Rα N-terminal domain construct
T4 sequence: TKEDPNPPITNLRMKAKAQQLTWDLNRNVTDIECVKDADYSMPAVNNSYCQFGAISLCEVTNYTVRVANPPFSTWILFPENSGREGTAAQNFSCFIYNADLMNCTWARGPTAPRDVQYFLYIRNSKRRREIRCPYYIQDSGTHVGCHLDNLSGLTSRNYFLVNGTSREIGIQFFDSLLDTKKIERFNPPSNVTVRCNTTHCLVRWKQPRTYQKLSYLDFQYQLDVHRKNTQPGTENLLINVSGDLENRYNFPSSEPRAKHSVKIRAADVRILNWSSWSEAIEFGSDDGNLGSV
Briefly: ELISA on plate-coated His-tagged protein, A450. As to the method: as §1, §2

B1: 7G3 (antibody, V domains shown)
VH: EVQLQQSGPELVKPGASVKMSCKASGYTFTDYYMKWVKQSHGKSLEWIGDIIPSNGATFYNQKFKGKATLTVDRSSSTAYMHLNSLTSEDSAVYYCTRSHLLRASWFAYWGQGTLVTVSA
VL: DFVMTQSPSSLTVTAGEKVTMSCKSSQSLLNSGNQKNYLTWYLQKPGQPPKLLIYWASTRESGVPDRFTGSGSGTDFTLTISSVQAEDLAVYYCQNDYSYPYTFGGGTKLEIKR
Consider B1, for which the Kd in test [1] was 2 nM; in test [3], ~2 nM; in test [4] it was 0.9 nM. In addition, the “IC50, inhibition of IL-3 dependent proliferation of TF-1 cells” value in test [2] is 0.33 nM and 0.2 nM.

B2: huCD123-6Gv4.7S3 (antibody, human IgG1, kappa)
heavy: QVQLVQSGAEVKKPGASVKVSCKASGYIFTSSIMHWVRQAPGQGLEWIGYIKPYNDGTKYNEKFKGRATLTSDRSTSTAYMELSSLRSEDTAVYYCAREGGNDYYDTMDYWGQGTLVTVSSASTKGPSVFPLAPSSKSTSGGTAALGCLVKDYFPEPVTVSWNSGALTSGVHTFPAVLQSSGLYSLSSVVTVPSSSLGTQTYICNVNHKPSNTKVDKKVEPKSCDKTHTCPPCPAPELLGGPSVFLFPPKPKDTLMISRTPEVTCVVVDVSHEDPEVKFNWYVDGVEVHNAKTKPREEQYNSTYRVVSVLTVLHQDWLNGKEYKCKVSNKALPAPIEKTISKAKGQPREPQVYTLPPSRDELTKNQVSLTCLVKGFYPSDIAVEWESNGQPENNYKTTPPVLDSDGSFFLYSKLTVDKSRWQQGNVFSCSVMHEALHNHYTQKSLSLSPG
light: SIQMTQSPSSLSASVGDRVTITCRASQDINSYLSWFQQKPGKAPKTLIYRVNRLVDGVPSRFSGSGSGNDYTLTISSLQPEDFATYYCLQYDAFPYTFGQGTKVEIKRTVAAPSVFIFPPSDEQLKSGTASVVCLLNNFYPREAKVQWKVDNALQSGNSQESVTEQDSKDSTYSLSSTLTLSKADYEKHKVYACEVTHQGLSSPVTKSFNRGEC
notes: also called huCD123-6Gv4.7 clone (S3); CD123-6G4.7S3
By EC50 (read off the curve) is commonly meant the concentration that produces a half-maximal response. Low readings indicate greater potency, high ones weaker potency. As for B2, in [5], the “EC50 (read off the curve)” value was ~0.05 nM. The “fold higher affinity than the 7G3 antibody” value in test [6] is ≥ 30 fold. Moreover, the “IC50, inhibition of IL-3 dependent proliferation of TF-1 cells” value in test [2] was determined as 0.02 nM. Moreover, the Kd in [3] is ~0.06 nM.

B3: huCD123-6Gv4.7 (antibody, human IgG1, kappa)
heavy: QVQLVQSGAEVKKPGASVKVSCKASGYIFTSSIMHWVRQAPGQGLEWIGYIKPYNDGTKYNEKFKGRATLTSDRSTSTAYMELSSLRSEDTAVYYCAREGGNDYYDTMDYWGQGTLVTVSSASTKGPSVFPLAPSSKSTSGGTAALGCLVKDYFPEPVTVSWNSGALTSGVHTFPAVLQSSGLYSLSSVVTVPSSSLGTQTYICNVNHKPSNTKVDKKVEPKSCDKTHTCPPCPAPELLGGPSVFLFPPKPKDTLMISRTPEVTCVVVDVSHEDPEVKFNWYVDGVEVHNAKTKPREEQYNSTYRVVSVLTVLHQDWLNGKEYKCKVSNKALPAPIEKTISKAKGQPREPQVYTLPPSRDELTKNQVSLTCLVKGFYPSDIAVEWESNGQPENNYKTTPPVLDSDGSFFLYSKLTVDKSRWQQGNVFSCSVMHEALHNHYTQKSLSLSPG
light: DIQMTQSPSSLSASVGDRVTITCRASQDINSYLSWFQQKPGKAPKTLIYRVNRLVDGVPSRFSGSGSGNDYTLTISSLQPEDFATYYCLQYDAFPYTFGQGTKVEIKRTVAAPSVFIFPPSDEQLKSGTASVVCLLNNFYPREAKVQWKVDNALQSGNSQESVTEQDSKDSTYSLSSTLTLSKADYEKHKVYACEVTHQGLSSPVTKSFNRGEC
notes: CDR-grafted humanized antibody; also called version 4.7 (VL Gv4 and VH Gv7)
For orientation: EC50 means the concentration needed to bring the measured effect to its halfway point. Take B3: the figures for the EC50 in [7] and in test [8] were 0.145 nM and 0.106 nM, respectively.

B4: huCD123-6Gv4.7S2 (antibody, human IgG1, kappa)
heavy: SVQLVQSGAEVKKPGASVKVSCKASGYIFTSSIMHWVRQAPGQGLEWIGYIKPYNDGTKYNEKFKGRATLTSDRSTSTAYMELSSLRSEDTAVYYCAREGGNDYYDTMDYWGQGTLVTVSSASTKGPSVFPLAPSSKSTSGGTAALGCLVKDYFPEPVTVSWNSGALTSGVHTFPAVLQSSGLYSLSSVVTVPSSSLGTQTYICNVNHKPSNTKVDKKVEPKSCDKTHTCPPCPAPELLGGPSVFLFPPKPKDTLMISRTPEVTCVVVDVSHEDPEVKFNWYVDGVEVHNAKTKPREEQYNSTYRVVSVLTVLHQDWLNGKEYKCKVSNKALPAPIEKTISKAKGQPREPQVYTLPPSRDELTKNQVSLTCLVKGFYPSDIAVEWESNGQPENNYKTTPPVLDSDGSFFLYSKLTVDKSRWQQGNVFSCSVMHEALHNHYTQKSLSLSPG
light: DIQMTQSPSSLSASVGDRVTITCRASQDINSYLSWFQQKPGKAPKTLIYRVNRLVDGVPSRFSGSGSGNDYTLTISSLQPEDFATYYCLQYDAFPYTFGQGTKVEIKRTVAAPSVFIFPPSDEQLKSGTASVVCLLNNFYPREAKVQWKVDNALQSGNSQESVTEQDSKDSTYSLSSTLTLSKADYEKHKVYACEVTHQGLSSPVTKSFNRGEC
notes: CDR-grafted humanized antibody with an engineered N-terminal Ser on the heavy chain; also called huCD123-6Gv4.7 clone (S2)
Consider B4, for which, in test [6], the “fold higher affinity than the 7G3 antibody” value is ≥ 30 fold. For the same molecule, the “IC50, inhibition of IL-3 dependent proliferation of TF-1 cells” value in test [2] amounted to 0.02 nM. The Kd in test [3] was ~0.06 nM.

B5: chCD123-3 (antibody, human IgG1, V domains shown)
VH: EFQLQQSGPEVVKPGASVKMSCKASGYTFTSYVMHWMKQKPGQGLEWIGYIKPYKDGTKYNEKFKGKATLISDKPSSTAYMELSSLTSEDSAVYYCAREGENGYYDAMDYWGQGTSVTVSS
VL: DIQMTQSPSSLSASLGGKVTITCKASQDINKYIAWYQHKPGKGPRLLIHYTSTLQPGIPSRFSGSGSGRDYSFSISNLEPEDIATYYCLQYDNLLYTFGGGTKLELKR
notes: human IgG1 and Kappa are spelled out for chCD123-6 and the same vectors and constant regions were used; also called chimeric CD123-3 antibody
Consider B5, for which the EC50 worked out at 0.852 nM in [7] and 0.274 nM in test [8]. In [9], the “fold difference of Kd from the murine counterpart” value (shortened to “fold difference of Kd”) is ≤ 2.5 fold. Also, the “IC50, inhibition of IL3-dependent proliferation of TF-1 cells” value in test [2] turned out to be 0.1 nM. Also, the figures for the Kd in test [10] and in test [3] were 0.2 nM and 0.1 nM, respectively.

B6: chCD123-6 (antibody, human IgG1, V domains shown)
VH: EFQLQQSGPELVKPGASVKMSCKASGYIFTSSIMHWMKQKPGQGLEWIGYIKPYNDGTKYNEKFKGKATLTSDKSSSTANMELNSLTSEDSAVYYCAREGGNDYYDTMDYWGQGTSVTVSS
VL: DIKMTQSPSSMYASLGERVTITCKASQDINSYLSWFQQKPGKSPKTLIYRVNRLVDGVPSRFSGSGSGQDYSLTISSLEYEDMGIYYCLQYDAFPYTFGGGTKLEIKR
notes: also called chimeric CD123-6 antibody
In the case of B6, in test [2], the “IC50, inhibition of IL3-dependent proliferation of TF-1 cells” value was 0.03 nM and the “IC50, inhibition of IL-3 dependent proliferation of TF-1 cells” value came to 0.02 nM. In [11], the “fold difference of Kd” value was ≤ 2.5 fold. Also, the Kd in test [10] turned out to be 0.08 nM. Also, in test [3], the Kd was 0.04 nM and ~0.06 nM.

B7: chCD123-14 (antibody, V domains shown)
VH: EVKLVESGGDLVKPGGSLKLSCAASGFTFSNYAMSWVRQNSEKRLEWVATINSGGSFTYYPDSVKGRFTISRDNAKDSLYLQMSSLNSEDTAMYYCARQSEAYYGYDKRTWFAYWGQGTLVTVSS
VL: DILLTQSPAILSVSPGTRVSFSCRASQSVGTSIHWYQQRPNGFPRLLIKYASESISGIPSRFSGSGSGTDFTLNINSVESEDIADYYCQQSKSWPLTFGAGTKLELKR
notes: also called chimeric CD123-14 antibody
As to B7, the “fold difference of Kd” value in [12] is ≤ 2.5 fold. The EC50 in [13] was 0.0479 nM; in test [8], 0.0655 nM. In test [2], the “IC50, inhibition of IL3-dependent proliferation of TF-1 cells” value was found to be 0.05 nM. In test [3], the Kd is 0.2 nM.
